This note sets out measurements from patent publication US20030022827A1.

Test [1] deals with IL-10R subtype I, which consists of an IL-10R1 and an IL-10R2 (human) (UniProt Q13651). Briefly: cell-based or functional assay.
The target of another test is IL-10R1 (human) (UniProt Q13651). As to the kind of experiment: cell-based or functional assay.
Chain of IL-10R1 (human) (Q13651 22-578): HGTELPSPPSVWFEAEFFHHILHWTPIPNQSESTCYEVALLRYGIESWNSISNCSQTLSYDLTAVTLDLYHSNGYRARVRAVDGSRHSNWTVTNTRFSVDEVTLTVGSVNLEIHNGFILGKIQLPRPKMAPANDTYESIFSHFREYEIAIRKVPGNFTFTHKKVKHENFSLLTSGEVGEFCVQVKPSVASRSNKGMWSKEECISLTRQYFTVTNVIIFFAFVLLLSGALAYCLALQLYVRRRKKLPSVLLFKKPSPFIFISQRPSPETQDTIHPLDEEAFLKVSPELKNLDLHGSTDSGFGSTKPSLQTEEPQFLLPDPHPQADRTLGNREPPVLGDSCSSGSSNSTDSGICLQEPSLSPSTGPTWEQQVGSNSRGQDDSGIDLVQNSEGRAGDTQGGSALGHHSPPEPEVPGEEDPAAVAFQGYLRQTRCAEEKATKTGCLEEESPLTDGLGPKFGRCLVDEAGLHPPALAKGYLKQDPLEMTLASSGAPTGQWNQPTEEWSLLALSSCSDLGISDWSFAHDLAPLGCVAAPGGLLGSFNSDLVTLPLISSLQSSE

Chain of IL-10R subtype I, which consists of an IL-10R1 and an IL-10R2 (human) (Q13651 22-578, chain 1 of 2): as the sequence (Q13651 22-578) above
Chain of IL-10R subtype I, which consists of an IL-10R1 and an IL-10R2 (human) (Q08334 20-325, chain 2 of 2, further chain): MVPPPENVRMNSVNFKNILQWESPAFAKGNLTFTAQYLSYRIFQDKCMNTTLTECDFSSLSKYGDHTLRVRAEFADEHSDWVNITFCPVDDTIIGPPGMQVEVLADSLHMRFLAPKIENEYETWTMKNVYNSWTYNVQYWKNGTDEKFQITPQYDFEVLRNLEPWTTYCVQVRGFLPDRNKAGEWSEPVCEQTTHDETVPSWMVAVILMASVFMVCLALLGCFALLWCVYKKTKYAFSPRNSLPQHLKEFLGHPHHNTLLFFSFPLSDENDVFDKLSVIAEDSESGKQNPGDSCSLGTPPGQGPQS

Substance “Epstein-Barr virus-coded protein BCRF1 (from UniProt P03180 24-170) (ligand)” showed an expression of the low-affine IgG receptor CD16 on monocytes (flow cytometry) in test [1] of 30 to 100 ng/mL. In the test with IL-10R1 (human), this substance returned an inhibition of LPS-induced TNF-α release of PBMC (ELISA of supernatant) of 3 ng/mL.
